One series relates to RAW264.7 cells. It counts as cell-based. Here is the method: (§1) Cells were also analyzed for the FITC-labeled peptide, which was added to the suspension of RAW264.7 cells in doses of 100 nM, 1 μM, 3 μM, 10 μM, 30 μM, 100 μM, and 300 μM, for one hour. For the time curve binding assay, 3 μM of the FITC-peptide were incubated with cells for 1, 5, 15, 60, 180, and 360 minutes before and analyzed on flow cytometry. For the propidium iodide (PI) assay, cells were incubated with different doses of the peptide for eight and 24 hours, with 10% DMSO serving as a positive control; the cells were then suspended, stained with PI, and analyzed with flow cytometry.
To investigate the effects of the SVEP1-based peptide on the metabolic and proliferative capacity of macrophage cells, RAW264.7 cells were subjected to varying concentrations of the peptide (1, 10, 30, 120 μM). The cells' metabolic activity was assessed using XTT after 3, 8, and 24 hours of peptide treatment. […] To further evaluate cell viability, propidium iodide (PI) staining was conducted after 8 and 24 hours of peptide treatment. […] These findings provide evidence of the peptide's safety profile and its potential suitability for use in macrophage cells.

In the next series the target is T1, ITGA9 (Mus musculus, UniProt B8JK39+P09055).
T1 construct: RAW264.7 cells, a murine macrophage-like cell line, was chosen due to their similarity to macrophages, adhesive and migratory capabilities, and their expression of integrin α9β1; host or cells: RAW264.7
T1 sequence (B8JK39 29-1036): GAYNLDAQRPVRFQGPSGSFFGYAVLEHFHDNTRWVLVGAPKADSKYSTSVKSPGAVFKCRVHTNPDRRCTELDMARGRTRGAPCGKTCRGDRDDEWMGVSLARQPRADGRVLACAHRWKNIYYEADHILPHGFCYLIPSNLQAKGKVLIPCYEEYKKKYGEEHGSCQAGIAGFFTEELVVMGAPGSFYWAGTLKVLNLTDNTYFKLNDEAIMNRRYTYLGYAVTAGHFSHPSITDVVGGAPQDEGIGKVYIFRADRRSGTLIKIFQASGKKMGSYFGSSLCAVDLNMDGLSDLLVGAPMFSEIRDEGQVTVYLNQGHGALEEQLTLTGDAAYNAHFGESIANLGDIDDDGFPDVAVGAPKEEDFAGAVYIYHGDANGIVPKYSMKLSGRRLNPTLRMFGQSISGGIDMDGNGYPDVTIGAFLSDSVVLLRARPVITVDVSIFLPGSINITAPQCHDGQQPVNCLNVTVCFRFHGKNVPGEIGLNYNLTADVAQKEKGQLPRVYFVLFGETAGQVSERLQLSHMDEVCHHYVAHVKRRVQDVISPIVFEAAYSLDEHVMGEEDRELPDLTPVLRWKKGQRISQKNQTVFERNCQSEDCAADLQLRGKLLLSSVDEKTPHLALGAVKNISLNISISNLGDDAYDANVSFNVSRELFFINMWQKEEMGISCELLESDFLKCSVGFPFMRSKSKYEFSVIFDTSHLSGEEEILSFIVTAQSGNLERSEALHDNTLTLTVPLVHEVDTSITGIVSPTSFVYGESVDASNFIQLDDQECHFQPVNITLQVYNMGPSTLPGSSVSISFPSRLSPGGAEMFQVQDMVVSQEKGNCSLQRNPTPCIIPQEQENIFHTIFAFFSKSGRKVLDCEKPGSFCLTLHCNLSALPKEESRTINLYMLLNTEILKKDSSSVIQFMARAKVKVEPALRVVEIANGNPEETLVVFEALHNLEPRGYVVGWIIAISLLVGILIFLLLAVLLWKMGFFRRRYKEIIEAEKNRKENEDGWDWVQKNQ
T1 sequence (P09055 21-798): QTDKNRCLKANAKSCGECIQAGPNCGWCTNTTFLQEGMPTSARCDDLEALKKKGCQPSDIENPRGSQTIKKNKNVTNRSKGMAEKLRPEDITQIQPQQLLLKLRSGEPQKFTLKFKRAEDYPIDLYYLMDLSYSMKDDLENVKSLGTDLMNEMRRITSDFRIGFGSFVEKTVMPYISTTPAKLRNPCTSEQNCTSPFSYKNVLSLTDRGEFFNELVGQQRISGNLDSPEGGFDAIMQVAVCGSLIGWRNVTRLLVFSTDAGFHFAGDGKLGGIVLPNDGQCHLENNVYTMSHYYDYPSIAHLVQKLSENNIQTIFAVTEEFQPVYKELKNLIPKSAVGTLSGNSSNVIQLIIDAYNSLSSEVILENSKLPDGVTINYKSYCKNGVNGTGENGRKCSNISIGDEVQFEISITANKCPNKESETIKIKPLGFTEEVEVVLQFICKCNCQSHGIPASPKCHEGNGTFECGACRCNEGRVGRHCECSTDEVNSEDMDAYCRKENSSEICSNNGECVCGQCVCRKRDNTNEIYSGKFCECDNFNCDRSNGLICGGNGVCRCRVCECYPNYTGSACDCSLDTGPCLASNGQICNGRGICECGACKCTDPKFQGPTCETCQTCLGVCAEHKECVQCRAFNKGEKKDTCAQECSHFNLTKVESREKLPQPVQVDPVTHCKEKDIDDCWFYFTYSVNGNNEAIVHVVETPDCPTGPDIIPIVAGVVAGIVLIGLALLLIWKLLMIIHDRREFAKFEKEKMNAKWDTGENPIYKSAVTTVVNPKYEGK
Description: FITC-peptide binding specificity in ITGA9 knockdown (siITGA9) cells. The settings on record: RAW264.7 cells, FITC-peptide 30 μM, 60 minutes. The method, then:
For siRNA assays, RAW264.7 cells were transfected by using Avalanche®-Everyday Transfection Reagent (Ezbio systems) with siSCR (Santa Cruz) and siITGA9 (Santa Cruz) in DMEM. The transfection solution was added to the cells for 48 hours, and the cells were examined after an additional 48 hours (96 hours in total).
(§2) RAW264.7 cells were incubated in PBS with 2% serum, 0.1% NaN3, and 1 mM EDTA for 20 minutes, collected, and centrifuged at 1800 rpm for 5 min. Next, the cells were suspended in a staining buffer; PBS with 2% serum and 0.1% NaN3 for 15 min on ice. The cells were stained for ITGA9-PE (R&D technologies).
In a previous study, a 9 amino-acid long sequence, “EDDMMEVPY”, was identified as the binding site of SVEP1 to integrin α9β1. […] The inventors first performed a dose-dependent uptake test, where the RAW264.7 cells were incubated with increasing peptide concentrations for half an hour and then measured in a flow cytometry assay. […] Next, the cells were pretreated with the peptide for different time durations and were also measured by flow cytometry analysis. The peptide bonded relatively quickly, with 50% of max mean fluorescence intensity presented after 15 minutes and stabilization after three hours (FIG. 5C). […]

Series [1] addresses T2, integrin α9β1 (Mus musculus, UniProt B8JK39+P09055).
T2 construct: RAW264.7 cells, a murine macrophage-like cell line, was chosen due to their similarity to macrophages, adhesive and migratory capabilities, and their expression of integrin α9β1; host or cells: RAW264.7
As to the kind of experiment: FITC-peptide dose-dependent uptake and time curve binding, flow cytometry. The settings on record: RAW264.7 cells. Here is the method:
as §2, §1
All labeled cells were analyzed by Cytoflex5l and Kaluza software (Beckman Coulter instrument).
In a previous study, a 9 amino-acid long sequence, “EDDMMEVPY”, was identified as the binding site of SVEP1 to integrin α9β1. To examine the effect of the peptide in vitro, RAW264.7 cells, a murine macrophage-like cell line, was chosen due to their similarity to macrophages, adhesive and migratory capabilities, and their expression of integrin α9β1, as shown in the confocal staining of ITGA9 and F4/80, with a seeming membranal expression of both (FIG. 5G). […] To characterize the binding properties of the peptide, a fluorescein isothiocyanate (FITC) labeled peptide was generated. The inventors first performed a dose-dependent uptake test, where the RAW264.7 cells were incubated with increasing peptide concentrations for half an hour and then measured in a flow cytometry assay. […] Next, the cells were pretreated with the peptide for different time durations and were also measured by flow cytometry analysis. The peptide bonded relatively quickly, with 50% of max mean fluorescence intensity presented after 15 minutes and stabilization after three hours (FIG. 5C). […]

Series [2] concerns the target T2, integrin α9β1. Description: Fluorescent live microscopy of FITC-peptide binding with/without unlabeled peptide. The conditions noted are these: RAW264.7 cells, FITC-peptide 30 μM. The method, then:
FIGS. 5A-5M include fluorescent micrographs and graphs showing characterization of the peptide's binding properties. (5A) Representative immunofluorescent confocal images of Raw264.7 cells stained for F4/80 and ITGA9, the dotted line square represents the magnified pictures, scale bar 116 μm. (5B) Flow cytometry quantification of LPS-activated RAW264.7 cells, ITGA9 MFI levels in LPS-activated RAW264.7 cells (4 hours), significance was calculated by unpaired t-test analysis. (5C) Calculated dose-response curve of Peptide-FITC positive RAW264.7 cells, measured in flow cytometry and time curve of the averaged mean fluorescent intensity (MFI) of RAW264.7 cells incubated with the labeled peptide, the MFI was calculated by flow cytometry. (5D) Representative images of RAW264.7 cells incubated with FITC-peptide (30 μM) for 15 and 60 minutes with and without an unlabeled peptide, scale bar=100 μm, and quantification of fluorescence intensity of RAW264.7 cells incubated with FITC-peptide (30 μM) for 15 and 60 minutes, w/o the unlabeled peptide, significance was calculated by using an ordinary one-way ANOVA. […] (5F) ITGA9 fluorescence intensity histogram in Scrambled and ITGA9 KD (Red) Raw264.7 cells incubated with FITC-peptide (30 μM) for 60 minutes, measured by flow cytometry. […]

Where no end group is shown, it is not given here.

The results in this text go back to patent US20260077011A1, “INTEGRIN INHIBITORS AS THERAPY FOR OBESITY DISORDERS” (priority 2022, published 2026).

T2 sequence (B8JK39 29-1036): as the sequence (B8JK39 29-1036) above
T2 sequence (P09055 21-798): as the sequence (P09055 21-798) above

Consider EDDMMEVPY [peptide, EDDMMEVPY], for which, in the series with RAW264.7 cells, the “fraction of PI-positive cells compared to the untreated group” value is listed as “remained unchanged”.

Regarding “FITC-peptide: fluorescein isothiocyanate (FITC) labeled peptide of 9 amino acids (EDDMMEVPY) (also: FITC labeled, site not given here)”, the “FITC-peptide binding (fluorescence intensity) in siITGA9 versus scrambled cells” value with ITGA9 is on record as “lower intensity levels”. In addition, the “percentage of ITGA9+FITC-peptide+ cells in KD cells” value in the series with ITGA9 (flow cytometry) is reported as “significantly lower”. In the series with integrin α9β1 [1] (3 μM FITC-peptide), the “time to 50% of max mean fluorescence intensity” value was found to be 15 min and the “time to stabilization of mean fluorescence intensity” value is given as “three”. The “percentage of Peptide-FITC positive cells” value with integrin α9β1 [1] (increasing peptide concentrations, half an hour) was “higher percentage of positive cells in a dose-related manner”. Besides, the “increase of fluorescence intensity after 60 minutes compared to 15 minutes” value with integrin α9β1 [2] is given as 35%. The “change of fluorescence intensity when co-incubated with the unlabeled peptide” value with integrin α9β1 [2] (competitive binding) was “decreased by a similar percentage”.
